Laboratory results reported in publication PMC10591882 (Cell reports, 2023).

Molecular target: T1, TBEV envelope protein domain III (EDIII) (Tick-borne encephalitis virus, Western …)
T1 chain: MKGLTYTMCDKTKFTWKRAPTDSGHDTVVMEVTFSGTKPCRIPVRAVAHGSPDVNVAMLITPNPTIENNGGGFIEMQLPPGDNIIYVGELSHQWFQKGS
Experiment: cell-based or functional assay

B1: human monoclonal antibody T025 (antibody, V domains shown)
VH: QVQLVESGGGVVQPGRSLRLSCAASGFTFSNYGMHWVRQAPGKGLDWVAVISYDAISKSYADSVEGRFTISRDNSKNTLYLQMNSLRAEDSAVYYCAKSPTAIDPPFDYWGQGTLVTVSS
VL: EIVMTQSPATLSVSPGERATLSCWASQSVSSNLAWYQQKPGQAPRLLIYGASTRATGIPARFSASGSGTEFTLTISSLQSEDFAVYYCQQYNNWPPRFGQGTKVEIK
IC50 of neutralisation of TBEV-Hypr (virus neutralization test on PS cells): 0.0293 µg/mL
